This note sets out measurements from US20160184455A1.

The experiment addresses MaxiK channel of rat bladder detrusor smooth muscle (endogenous) (rat) (UniProt Q62976). The experiment is described as follows: cell-based or functional assay.

A value given as a limit tells only on which side of the number the result lay.

Sequence of UniProt Q62976 (Q62976 whole entry): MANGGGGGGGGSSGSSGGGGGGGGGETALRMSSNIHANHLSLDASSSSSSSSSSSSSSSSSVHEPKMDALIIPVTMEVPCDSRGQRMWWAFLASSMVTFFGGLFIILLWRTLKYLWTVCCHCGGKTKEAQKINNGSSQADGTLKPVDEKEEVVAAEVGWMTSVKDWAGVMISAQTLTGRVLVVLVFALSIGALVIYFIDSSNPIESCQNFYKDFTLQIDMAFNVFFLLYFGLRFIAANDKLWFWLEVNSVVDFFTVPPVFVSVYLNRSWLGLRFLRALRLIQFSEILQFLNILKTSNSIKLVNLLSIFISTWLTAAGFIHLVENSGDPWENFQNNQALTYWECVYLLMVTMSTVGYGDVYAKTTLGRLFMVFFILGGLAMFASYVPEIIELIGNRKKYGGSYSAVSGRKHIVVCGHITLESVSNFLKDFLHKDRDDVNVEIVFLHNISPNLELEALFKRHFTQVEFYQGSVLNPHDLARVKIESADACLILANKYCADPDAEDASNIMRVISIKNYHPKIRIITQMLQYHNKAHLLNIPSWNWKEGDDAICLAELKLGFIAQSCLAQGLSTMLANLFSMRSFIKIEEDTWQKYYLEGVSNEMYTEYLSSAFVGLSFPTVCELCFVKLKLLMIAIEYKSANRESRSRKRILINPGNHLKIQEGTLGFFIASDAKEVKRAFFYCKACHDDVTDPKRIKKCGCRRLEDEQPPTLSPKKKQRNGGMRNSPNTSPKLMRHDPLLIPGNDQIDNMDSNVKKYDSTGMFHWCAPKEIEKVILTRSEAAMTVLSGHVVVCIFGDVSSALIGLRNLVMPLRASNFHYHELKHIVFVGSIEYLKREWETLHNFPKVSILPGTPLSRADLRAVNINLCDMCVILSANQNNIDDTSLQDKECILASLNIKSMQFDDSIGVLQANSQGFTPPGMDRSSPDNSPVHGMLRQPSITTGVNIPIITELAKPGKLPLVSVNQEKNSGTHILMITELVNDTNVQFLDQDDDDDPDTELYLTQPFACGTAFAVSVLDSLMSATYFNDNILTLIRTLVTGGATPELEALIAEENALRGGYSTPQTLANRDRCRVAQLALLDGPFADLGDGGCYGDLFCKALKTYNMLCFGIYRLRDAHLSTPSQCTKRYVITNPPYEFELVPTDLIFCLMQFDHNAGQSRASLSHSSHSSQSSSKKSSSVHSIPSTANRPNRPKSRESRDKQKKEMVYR

Turning to “iberiotoxin (IBTX) (from UniProt P24663 1-37) (peptide)”, the outward current in response to applied voltage, single whole cell patch clamp of detrusor cells before and after 300 nM IBTX is greater than 50%.
